Changes are numbered by the printed parent chain. Bridge positions count the residues as written; N and C are the ends. Ends that are not written are not given here.
T1: recombinant cyno hepcidin (SEQ ID NO: 6) (cynomolgus monkey)
T1 construct: also called rcyno hepcidin; rcynoHepc
T1 peptide: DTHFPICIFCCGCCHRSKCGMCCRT

T2: recombinant mouse hepcidin (SEQ ID NO: 80) (mouse, not fully specified)
T2 construct: also called murine hepcidin
T2 peptide: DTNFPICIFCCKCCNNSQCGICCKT

T3: recombinant human prohepcidin (SEQ ID NO: 102) (human)
T3 chain: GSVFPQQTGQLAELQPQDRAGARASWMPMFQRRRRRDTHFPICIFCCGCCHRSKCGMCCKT

T4: hepcidin 20 (SEQ ID NO: 96) (human)
T4 construct: also called Hepc20; hepc20
T4 peptide: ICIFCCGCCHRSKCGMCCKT

B1: human hepcidin (SEQ ID NO: 9), mature, correctly folded (peptide)
peptide: DTHFPICIFCCGCCHRSKCGMCCKT
modifications: disulfide 10-13, 11-19, 14-22, 7-23; not fully specified
notes: 25-residue mature peptide with four disulfides (C7-C23, C10-C13, C11-C19, C14-C22); Recombinant (E. coli or CHO) or synthetic, by assay; also called rhHepc; shHepc
B2: murine anti-human hepcidin monoclonal antibody 2.7 (antibody, V domains shown)
VH: QIQLVQSGPELKKPGETVKISCKASGYTFTTYGMSWVKQAPGKGLKWMGWINTYSGVPTYADDFKGRFAFSLETSASTAYLQINNLKNEDTATYFCGRDHYYGEVAYWGQGTLVTVSA
VL: DIVLTQSPASLAVSLGQRATISCRASESVDSYGNSFMHWYQQKPGQPPKLLIYRASNLESGIPARFSGSGSRTDFTLTINPVEADDVATYYCHQSNEEYTFGGGTKLEIK
notes: Mouse hybridoma monoclonal; Murine IgG1 was used as its isotypic control; also called Ab2.7; Ab 2.7
B3: murine anti-human hepcidin monoclonal antibody 2.41 (antibody, V domains shown)
VH: B2 VH with Y54S, K65M, G97A, H100R
VL: B2 VL with Y32F, Q42L, T89I, H93Q
notes: Mouse hybridoma monoclonal
B4: rat anti-human hepcidin monoclonal antibody R9 (antibody, V domains shown)
VH: QVTLKESGPGILQPSQTLSLTCSFSGFSLSTSGICVSWIRQPSGKGLEWLATICWEDSKGYNPSLKNRLTISKDTSNNQAFLKITSVDTADTAIYYCARPLNYGGYSELELDYWGQGVMVTVSS
VL: DIQMTQSPSLLSASVGDRVTLSCKASQNIYKYLNWYQQKLGEAPKLLIYYTNSLQTGIPSRFSGSGSGTDFTLTISSLQPEDVATYYCYQYNSGPTFGAGTKLELK
notes: Rat hybridoma monoclonal; also called mAb R9
B5: murine anti-human hepcidin monoclonal antibody Ab43 (antibody, V domains shown)
VH: QIQLVQSGPELKKPGETVKISCKASGYTFTTYGMSWVKQAPGKGLKWMGWINTYSGVPTYADDFKGRFAFSLETSASTAYLQINNLKNEDTATYFCASLWYYGRAFDYWGQGTTLTVSS
VL: B2 VL with D1N, R54L, I62V, N80D, V87A, H93Q, S95N, E98D, Y99R
notes: Mouse hybridoma monoclonal; also called mAB 43

Experiments:
[1] = target: B2; experiment: competitive binding assay: unlabeled human hepcidin against 0.25 nM biotinylated hepcidin for Ab2.7; standards in rabbit serum
Description: (§1) Hepcidin levels were determined using hepcidin standards of varying concentrations (from 1.4-300 ng/ml) spiked into buffer (5% BSA:I-block), rabbit serum, or pooled human serum. […] 25 μl/well of mixed solution was added to Black half area plates coated with 1-2 μg/mL G×M capture antibody. 25 μL/well of biotinylated hepcidin was added at 0.25 nM. The plate was covered with plate film sealer and incubated at room temperature (25° C.) on a plate shaker at around ≦200 RPM for around 60 minutes. The plate was washed and then 50 μL/well of Poly horseradish peroxidase amplification reagent at 1:2000 was added. The plate was allowed to sit for 30 minutes and was then washed with a plate washer using PBS or KPL buffer 6 times. The plate was patted dry and a luminescent substrate (Femto or Pico) was quickly added. The plate was read with luminometer (ex: Lmax 340) for 1 second using Femto or Pico Substrate. […] (FIG. 30).

[2] = target: B2; experiment: competitive binding assay: unlabeled human hepcidin against 0.25 nM biotinylated hepcidin for Ab2.7; standards in 5% BSA:I-block buffer
Description: as §1

[3] = target: B1; experiment: BIAcore: 1 nM antibody over immobilized rhHepc surface, no competitor (reference)
Description: (§2) Recombinant hepcidin was immobilized on a CM5 chip according to manufacturer's instructions at a flow rate 10 μL/min of running buffer (DPBS: Dulbecco's Phosphate Buffer Saline1X, GIBCO 14190, with 0.005% BIAcore surfactant P-20). The carboxylated matrix of the sensor chip was first activated with a 100 μL injection of 1:1 mixture of EDC (75 mg/mL N-ethyl-N-(dimethylamine-propyl)carbodiimide in water, from Biacore) and NHS (11.5 mg/mL N-hydroxysuccinimide in water, from Biacore). […] The excess reactive groups of the sensor chip were deactivated with an injection of 100 μL of ethanolamine (1.0M, from Biacore).
(§3) The binding signal obtained was proportional to the concentration of free antibody in solution at equilibrium.

[4] = target: T1, recombinant cyno hepcidin (SEQ ID NO: 6); experiment: KinExA solution equilibrium: fixed antibody + varied rcyno hepcidin, free antibody captured on rcyno hepcidin-coated beads
Excerpt: Reacti-Gel 6× beads (Pierce, Rockford, Ill.) were pre-coated with rcyno hepcidin (SEQ ID NO: 6) and blocked with BSA according to manufacturer's instructions. […] The amount of the bead-bound antibody was quantified by fluorescently (Cy5)-labeled goat anti-murine-IgG (H+L) antibody (Jackson Immuno Research, West Grove, Pa.). The binding signal is proportional to the concentration of free antibody at equilibrium. Dissociation equilibrium constant (KD) was obtained from nonlinear regression of the competition curves using a dual-curve one-site homogeneous binding model (KinExA™ Pro software).

[5] = target: B1; experiment: BIAcore solution equilibrium: fixed antibody incubated with varied hepcidin, free antibody read on immobilized hepcidin chip
Description: (§4) Preparation of BIAcore chip surfaces: Immobilization of proteins to a BIAcore was performed according to manufacturer's instructions at a flow rate 10 μL/min of running buffer (DPBS: Dulbecco's Phosphate Buffer Saline1X, GIBCO 14190, with 0.005% Biacore surfactant P-20). The carboxylated matrix of the sensor chip was first activated with a 100 μL injection of 1:1 mixture of EDC (75 mg/mL N-ethyl-N-(dimethylamine-propyl)carbodiimide in water, from BIAcore) and NHS (11.5 mg/mL N-hydroxysuccinimide in water, from Biacore). […] The excess reactive groups of the sensor chip were deactivated with an injection of 100 μL of ethanolamine (1.0M, from Biacore).
(§5) Equilibrium binding analysis of antibody/hepcidin interactions on immobilized hepcidin surface: Fixed concentrations of antibody were incubated with various concentrations of hepcidin at room temperature for several hours before run through the immobilized hepcidin surface. After each sample injection, the surfaces were regenerated by injecting 30 μL […] glycine, pH1.5. The binding signal obtained is proportional to the free antibody in solution at equilibrium. The equilibrium dissociation constant (KD) was calculated from nonlinear regression analysis of the competition curves using a one or dual-curve one-site homogeneous binding model (KinExA™ software, Sapidyne Instruments Inc., Boise Id.).

[6] = target: T2, recombinant mouse hepcidin (SEQ ID NO: …); experiment: as above
Description: as §4, §5

[7] = target: T3, recombinant human prohepcidin (SEQ ID …); experiment: sandwich immunoassay: Ab2.7 capture, biotinylated rabbit anti-prohepcidin polyclonal detection; the prohepcidin concentration is varied (buffer curves)
Description: In order to reliably assess prohepcidin concentrations, a prohepcidin standard was measured after incubation for 60 minutes at 25° C. in a range of different buffers or sera.

[8] = target: B1; experiment: BIAcore: 1 nM antibody preincubated with 10 nM of this hepcidin form in solution, then run over immobilized rhHepc surface; % = free antibody still binding the surface (low % = strong binding to the solution form)
Description: as §2, §3

[9] = target: T4, hepcidin 20 (SEQ ID NO: 96); experiment: as above
Description: as §2, §3

[10] = target: T1, recombinant cyno hepcidin (SEQ ID NO: 6); experiment: BIAcore solution equilibrium: fixed rcynoHepc + varied antibody, free rcynoHepc read on immobilized antibody surface
Description: The immobilization was performed at a flow rate 10 uL/min of running buffer (DPBS: Dulbecco's Phosphate Buffer Saline1, GIBCO 14190, with 0.005% BIAcore surfactant P-20) according to manufacturer's instructions. The carboxylated matrix of the sensor chip was first activated with a 100 ul injection of 1:1 mixture of EDC (75 mg/mL N-ethyl-N-(dimethylamine-propyl)carbodiimide in water, from BIAcore) and NHS (11.5 mg/mL N-hydroxysuccinimide in water, from BIAcore). 180 ul of antibodies (˜20 ug/ml in 10 mM Na-acetate pH4.0) was injected to immobilize onto the sensor chip at 30 uL/min. The excess reactive groups of the sensor chip were deactivated with an injection of 100 uL of ethanolamine (1.0M, from BIAcore).
The binding signal obtained is proportional to the free rcynoHepc in solution at equilibrium. The equilibrium dissociation constant (KD) was calculated from nonlinear regression analysis of the competition curves using a one-curve one-site homogeneous binding model (KinEx™ software, Sapidyne Instruments Inc., Boise Id.).

[11] = target: T4, hepcidin 20 (SEQ ID NO: 96); experiment: BIAcore solution competition: 1 nM antibody preincubated with 10 nM antigen, then immobilized hepcidin surface; '-' = no inhibition by the solution form
Description: as §2, §3

| Binder | IC50 (read off the curve) [1] [ng/mL] | IC50 (read off the curve) [2] [ng/mL] | Binding to Hepcidin Surface (%) [3] [%] | Kd [4] [nM] | Kd [5] [nM] | Kd [6] [nM] | EC50 (read off the curve) [7] [ng/mL] | Binding to Hepcidin Surface (%) [8] [%] | Binding to Hepcidin Surface (%) [9] [%] | Kd [10] [nM] | binding result [11] |
| --- | --- | --- | --- | --- | --- | --- | --- | --- | --- | --- | --- |
| B1 | ~7 | ~7 |  |  |  |  |  |  |  |  |  |
| B2 |  |  | 100 | ~0.016 | 0.11 | 40 | ~10 | 2 | 3 |  |  |
| B3 |  |  | 100 | ~0.009 | 0.05 | 30 |  | 0 | 1 |  |  |
| B4 |  |  | 100 |  | 21 | 20 |  | 79 | 88 | ~10 |  |
| B5 |  |  | 100 |  | 0.56 | 14 |  | 11 | 100 | ~0.1 | no binding (tested: 10 nM) |

— patent US20080213277A1 (Amgen, published 2008)
